Experiment [1] addresses T1, human BCMA on cells (HEK293T/huBCMA; NCI-H929) (human, UniProt Q02223 1-184).
T1 construct: whole, on cells; also called human BCMA molecules on NCI-H929 cell line
T1 sequence (looked up): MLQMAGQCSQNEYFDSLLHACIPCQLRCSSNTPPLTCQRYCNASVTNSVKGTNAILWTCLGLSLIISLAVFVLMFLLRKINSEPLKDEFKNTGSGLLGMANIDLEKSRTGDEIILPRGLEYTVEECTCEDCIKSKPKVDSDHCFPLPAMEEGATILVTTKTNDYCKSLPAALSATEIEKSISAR
The experiment can be described thus: FACS on HEK293T/huBCMA cells. The source says: To study the in vitro binding activity of the BCMA arm of the BCMA×CD3 bispecific antibody, HEK293T cell strain overexpressing human BCMA (HEK293T/huBCMA) and HEK293T cell strain overexpressing cynomolgus monkey BCMA (HEK293T/cynoBCMA) were used for antibody binding experiments at cellular level. Briefly, HEK293T/huBCMA cells and HEK293T/cynoBCMA cells were digested and resuspended with DMEM complete medium. The cell density of the two was adjusted to 1×10⁶ cells/mL, respectively. Cells were inoculated at 100 μL cells/well in a 96 well V-bottom plate (Corning, Cat#: 3894), followed by the addition of test antibodies at 100 μL/well, which is gradient diluted at 3 folds of the concentration with 2 folds of the final concentration. Cells were incubated at 4° C. for 1 hour in the dark. Afterwards, the cells were washed twice with 100 μL/well of pre-cooled PBS, centrifuged at 500 g for 5 min at 4° C., and followed by discarding the supernatant. 100 μL/well of fluorescent secondary antibody (Alexa Fluor 488-conjugated AffiniPure Goat Anti-Human IgG, Fcγ Fragment Specific, Jackson, Cat#: 109-545-06, 1:500 dilution) was added and incubated for 30 min at 4° C. in the dark. […] Finally, the cells were resuspended with 200 μL/well of pre-cooled PBS, and the fluorescence luminescence signal values were read by BD FACS CANTOII. […]

For experiment [2], the target named is T2, human CD3e/g ECD-hFc recombinant protein (human, UniProt P07766 23-126; P09693 23-116).
T2 construct: extracellular domain; Bought from ChemPartner; not shown: human Fc
T2 sequence (P07766 23-126, chain 1 of 2): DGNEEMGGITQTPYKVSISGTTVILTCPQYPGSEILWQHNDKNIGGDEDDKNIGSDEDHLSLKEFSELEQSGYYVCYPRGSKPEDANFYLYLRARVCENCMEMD
T2 sequence (P09693 23-116, chain 2 of 2): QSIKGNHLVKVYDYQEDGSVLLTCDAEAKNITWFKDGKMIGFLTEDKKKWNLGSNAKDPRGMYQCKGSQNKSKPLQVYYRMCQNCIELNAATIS
The experiment in a line: Biacore, antigen coupled to a CM5 chip, PR003178 injected at 12-0.375 nM, 1:1 kinetic fit [E]. On the procedure: (§1) Human BCMA-Fc, Avitag recombinant protein (ACRO, Cat. BC7-H82F0), cynomolgus monkey BCMA-Fc, Avitag (ACRO, Cat. BCA-C82F4) were purchased from ACRO, human CD3e/g ECD-hFc recombinant protein (Lot.20190508002), cynomolgus monkey CD3e/g ECD-hFc recombinant protein and human (Lot.2018040001) were purchased from ChemPartner.
(§2) The flow rate was set as 10 μl/min and four antigens were coupled on four channels on two CMS: 1) the injection time was set as 300 s, and 50 mM of NHS and 200 mM of EDC were freshly mixed at 1:1 volume ratio and injected into four channels; 2) human BCMA-Fc, Avitag recombinant protein, cynomolgus monkey BCMA-FC, Avitag, human CD3e/g ECD-hFc recombinant protein and cynomolgus CD3e/g ECD-hFc recombinant protein were all diluted to 1 μg/ml with sodium acetate (Cat# BR-1003-50) (pH 4.5), and injected into channel 2, 3 and 4 of chip 1 and channel 2 of chip 2, respectively; 3) 1 M of ethanolamine (pH8.5) was injected for 300 s to block the remaining active carboxyl groups on the chips surface. After blockage, the instrument was continued to be equilibrated with 1 ×HBS- EP+buffer for two hours. The final coupling amounts of human BCMA-Fc, Avitag recombinant protein, cynomolgus monkey BCMA-Fc, Avitag, human CD3e/g ECD-hFc recombinant protein and cynomolgus monkey CD3e/g ECD-hFc recombinant protein were 120 RU, 70 RU, 200 RU and 290 RU, respectively.
(§3) A multi-cycle kinetic mode was set, and each cycle included the binding of PRO03178 as well as the regeneration of the chip. PRO03178 with two-fold gradient dilution was injected into four channels at a flow rate of 30 μl/min. A binding time of 180 s and a dissociation time of 400 s or 600s were set. Finally, 10 mM of glycine-hydrochloric acid (pH 1.5) (GE Life Sciences, Cat# BR-1003-54) was injected at the same flow rate for 60 s to regenerate the chip.
In general terms: In SPR one partner is held on a chip, and binding of the other changes the refractive index at the surface.

Experiment [3] addresses T3, human BCMA-Fc, Avitag recombinant protein (ACRO, Cat. BC7-H82F0) (human, UniProt Q02223 1-54).
T3 construct: extracellular domain; Bought reagent; amine-coupled to the CM5 chip in the Biacore assay; also called recombinant human BCMA-ECD-Fc; human BCMA recombinant protein; not shown: Fc and Avitag of the bought protein
T3 sequence (looked up): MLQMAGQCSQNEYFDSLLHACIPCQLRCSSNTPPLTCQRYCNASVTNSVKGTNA
The experiment is described as above. On the procedure: as §1, §2, §3

For experiment [4], the target named is T4, cynomolgus monkey BCMA-Fc, Avitag (ACRO, Cat. BCA-C82F4) (cynomolgus monkey, UniProt A0A2K5UD97 1-53).
T4 construct: Bought reagent; amine-coupled to the CM5 chip; also called cynomolgus monkey BCMA recombinant protein; not shown: Fc and Avitag of the bought protein
T4 sequence (A0A2K5UD97 entry or part of it): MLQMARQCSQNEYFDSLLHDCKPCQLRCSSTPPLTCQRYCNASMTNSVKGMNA
The experiment can be described thus: Biacore, antigen coupled to a CM5 chip, PR003178 injected at 6-0.1875 nM, 1:1 kinetic fit [E]. On the procedure: as §1, §2, §3

For experiment [5], the target named is T2, human CD3e/g ECD-hFc recombinant protein. The experiment in a line: SPR (Biacore T200), antigen amine-coupled on CM5, antibody as analyte, 1:1 fit. How it is done:
as §2
(§4) A multi-cycle kinetic mode was set, and each cycle included the binding of PRO03178 as well as the regeneration of the chip. […]
(§5) The experimental results were analyzed by using Biacore T200 analysis software, and channel 1 was deducted as reference channel, and a 1:1 kinetic fit model was selected as the analysis model.

The target of experiment [6] is T3, human BCMA-Fc, Avitag recombinant …. The experiment is described as above. On the procedure:
as §2, §4, §5

The term koff denotes a measure of how fast the partners let go of each other. A word on the kon: it is a measure of how fast the partners come together. For orientation: Kd means the equilibrium constant for the complex coming apart.

B1: BCMA x CD3 bispecific antibody PR003178 (bispecific antibody, human IgG1, lambda, L234A L235A)
heavy 1: not shown
light: QAVVTQEPSLTVSPGGTVTLTCRSSTGAVTTSNYANWVQQKPGQAPRGLIGGTNKRAPWTPARFSGSLLGDKAALTLLGAQPEDEAEYFCALWYSNLWVFGGGTKLTVLGQPKAAPSVTLFPPSSEELQANKATLVCLISDFYPGAVTVAWKADSSPVKAGVETTTPSKQSNNKYAASSYLSLTPEQWKSHRSYSCQVTHEGSTVEKTVAPTECS
heavy 2: EVQLVETGGGLIQPGGSLRLSCAASGFTVSDNYMTWVRQAPGKGLEWVSVIFSGGNTYYADSVKGRFTISRDNAKNTLYLQMNSLRAEDTALYYCARRNYDDTRGTDVFDIWGQGTMVTVSSGGGGSGGGGSGGGGSEVQLVETGGGLIQPGGSLRLSCAASGFTVSDNYMTWVRQAPGKGLEWVSVIFSGGNTYYADSVKGRFTISRDNAKNTLYLQMNSLRAEDTALYYCARRNYDDTRGTDVFDIWGQGTMVTVSSASEPKSSDKTHTCPPCPAPEAAGGPSVFLFPPKPKDTLMISRTPEVTCVVVDVSHEDPEVKFNWYVDGVEVHNAKTKPREEQYNSTYRVVSVLTVLHQDWLNGKEYKCKVSNKALPAPIEKTISKAKGQPREPQVCTLPPSREEMTKNQVSLSCAVKGFYPSDIAVEWESNGQPENNYKTTPPVLDSDGSFFLVSKLTVDKSRWQQGNVFSCSVMHEALHNHYTQKSLSLSPGK
notes: Three chains: HC1 (anti-CD3 heavy, knob, LALA), LC (anti-CD3 lambda light), HC2 (two tandem anti-BCMA VH of PR001046 joined by (G4S)3, then Fc hole, LALA); also called PRO03178
For B1, the “fold lower EC50 than positive control 2” value in experiment [1] is about 5 fold. For the same molecule, the koff in experiment [2] amounted to 0.0149 s⁻¹; in experiment [3], 0.000167 s⁻¹; in experiment [4] it was 0.000285 s⁻¹. Moreover, the kon in experiment [2] came out at 588000 M⁻¹ s⁻¹; in experiment [3], 1.76e+06 M⁻¹ s⁻¹; in experiment [4], 1.94e+06 M⁻¹ s⁻¹. For the same molecule, the Kd in experiment [4] was 147 pM; in experiment [5], about 25400 pM; in experiment [6] it was about 94.9 pM.

The record behind these values is patent US20220340673A1 (HARBOUR BIOMED SUZHOU, published 2022).
